Assay results from patent US20260274955A1 (JANUX THERAPEUTICS, published 2026).

Target: T1, Anti-CD28 Fab (SEQ ID NOs: 202, 203)
T1 construct: biotinylated and captured on neutravidin coated plates in the phage ELISA
Test: phage binding ELISA, Fab on plate;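 further: clonal phage supernatant ELISA, wells preincubated with CD28 antigen or blocking buffer only, then bound phage detected using HRP-linked anti-M13 antibody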
Experimental: (§1) After panning, phage infected bacteria were plated out and colonies picked into 96 well blocks. Clonal phage was then amplified and separated from bacterial cells via centrifugation.
(§2) Clonal phage were harvested as crude supernatants and screened via standard ELISAs. […] Prior to the addition of clonal phage, wells were incubated with blocking buffer and CD28 antigen or blocking buffer alone. Without washing or aspirating, clonal phage supernatants were then added to the wells and incubated for a short time. Wells were then washed followed by detection of bound phage using a horse radish conjugated anti-M13 antibody. Clonal phage of interest were then sent for sequence analysis.

T1 sequence (VH, as listed by the source, chain 1 of 2): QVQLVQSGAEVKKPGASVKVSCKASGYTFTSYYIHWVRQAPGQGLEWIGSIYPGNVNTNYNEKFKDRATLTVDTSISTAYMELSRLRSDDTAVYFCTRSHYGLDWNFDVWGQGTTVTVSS
T1 sequence (VL, as listed by the source, chain 2 of 2): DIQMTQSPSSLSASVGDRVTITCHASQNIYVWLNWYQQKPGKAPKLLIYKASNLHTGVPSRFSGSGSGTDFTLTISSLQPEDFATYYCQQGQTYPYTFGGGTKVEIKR

| Binder | Anti-CD28 Fab (SEQ ID NOs: 202, 203) signal |
| --- | --- |
| TCAAGAMWTWPECL [Phage-1081] | 1.57 |
| TCSAGAAYAWPYCL [Phage-1072] | 1.59 |
| TCAAGAYYAWPMCL [Phage-1070] | 1.59 |
| TCSAGFSYKWPWCL [Phage-1080] | 1.57 |
| TCSAVFSYTWSNCF [Phage-1089] | 1.54 |
| SCSAGAAWPWPWCL [Phage-1085] | 1.55 |
| LCAAGFNYPWPLCL [Phage-1083] | 1.57 |
| SCAAGATFHWPMCF [Phage-1079] | 1.57 |
| MCTAGATYPWPACL [Phage-1084] | 1.56 |
| LCSAGAMYQWPTCL [Phage-1061] | 1.63 |
| LCSAGAMWQWPTCL [Phage-1097] | 1.51 |
| TCTAVFPYEWPRCL [Phage-1078] | 1.57 |
| LCAAGAAYPWPMCL [Phage-1073] | 1.59 |
| TCAAGAMWNWPQCY [Phage-1092] | 1.54 |
| TCSAGATYSWPFCF [Phage-1087] | 1.55 |
| TCAAGATYPWPECM [Phage-1082] | 1.57 |
| SCAAGAPYPWPECL [Phage-1071] | 1.59 |
| SCSAVFSYAWPTCL [Phage-1064] | 1.61 |
| SCAAGAQYGWPMCL [Phage-1076] | 1.59 |

| Binder | Anti-CD28 Fab (SEQ ID NOs: 202, 203) signal |
| --- | --- |
| LCSAGATYPWPWCM [Phage-1058] | 1.64 |
| SCAAGATYEWPRCL [Phage-1068] | 1.6 |
| SCAAGATYEWPICL [Phage-1074] | 1.59 |
| WCAAGASYPWPWCL [Phage-1077] | 1.58 |
| TCAAGAHYEWPMCY [Phage-1063] | 1.61 |
| WCTAGFSYKLSICL [Phage-1060] | 1.63 |
| TCAAGATWDWPLCF [Phage-1099] | 1.51 |
| TCAAGASWEWPLCF [Phage-1094] | 1.52 |
| TCSAGANYEWPWCF [Phage-1062] | 1.62 |
| TCAAGAHWIWPWCE [Phage-1066] | 1.61 |
| SCKAGAPYYWPGCF [Phage-1088] | 1.54 |
| SCSAGAMYPWPMCL [Phage-1093] | 1.53 |
| DCWGDAPYPWRVCL [Phage-1059] | 1.64 |
| TCAAGAAWEWPICF [Phage-1091] | 1.54 |
| TCEAVFIYSWPFCL [Phage-1096] | 1.52 |
| TCAAGAGWQWPMCF [Phage-1067] | 1.6 |
| TCSAGATYVWPDCF [Phage-1095] | 1.52 |
| LCAEGADYPWPMCL [Phage-1098] | 1.51 |
| LCAEGFDYSWPMCL [Phage-1086] | 1.55 |

Target: T2, anti-CD28 Fab (SEQ ID NOs: 202, 203)
T2 construct: biotinylated and captured on neutravidin coated plates in the phage ELISA
Test: phage binding ELISA on captured biotinylated Fab;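 further: clonal phage supernatants added to wells preincubated with CD28 antigen or blocking buffer only, bound phage detected by ELISA with horseradish-conjugated anti-M13 antibody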
Experimental: as §1, §2

T2 sequence (VH, as listed by the source, chain 1 of 2): as the sequence (VH, as listed by the source, chain 1 of 2) above
T2 sequence (VL, as listed by the source, chain 2 of 2): as the sequence (VL, as listed by the source, chain 2 of 2) above

| Binder | Anti-CD28 Fab (SEQ ID NOs: 202, 203) signal |
| --- | --- |
| GCQYPWAFDAMSCP [Phage-6] | 2.38 |
| PDCQTILFKPWCVR [Phage-4] | 2.09 |
| PDCHTILFKPWCVR [Phage-16] | 1 |
| WECLKYTEANACTY [Phage-2] | 1.55 |
| SCAAGASYAWPYCL [Phage-18] | 1.49 |
| WCWDYKLWVPTQCP [Phage-7] | 2.27 |
| YWSCFQIPFTCFYF [Phage-1] | 1.44 |
| WCWDYREWVPMTCP [Phage-8] | 2.3 |
| ACDTYFAGMINECF [Phage-5] | 0.92 |
| FMCLPQNPHPLCFK [Phage-3] | 0.84 |
